In the nanobody polyreactivity screen of Harvey et al. (2022):

Test: yeast display, Sf9 membrane polyspecificity reagent, FACS + sequencing; frameworks hold sequencing errors
In short: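 Nanobodies came from a synthetic yeast display library in Saccharomyces cerevisiae BJ5465, induced with galactose for 36–48 hours and stained for 1 hour at 4 °C with 10% biotinylated, detergent-solubilized Sf9 membrane reagent. Cells were enriched on streptavidin microbeads and then FACS-sorted, with low and high (top ~1%) gates set on anti-HA fluorescence for expression and streptavidin fluorescence for reagent binding. Each polyreactivity label reflects the gate a clone came from. Genes were amplified by colony PCR, sequenced by MiSeq 2 × 250 and filtered by CDR length.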

Sequence | polyreactivity (PSR sort gate)
QVQLVESGGGLVQAGGSLRLSCAASGFIFFTYAMGWYRQAPGKERELVADISSRGGSTYYADSVKGRFTISRDNAKNTVYLQMNSLKPEDTAVYYCARTRFWLRYRLFDYWGQGTQVTVSS | low polyreactivity
QVQLVESGGGLVQAGGSLRLSCAASGIIFIGNAMGWYRQAPGKERELVAAISRRGGGTYYADSVKGRFTISRDNAKNTVYLQMNSLKPEDTAVYYCNAEITVNDDDYWGQGTQVTVSS | high polyreactivity
QVQLVESGGGLVQAGGSLRLSCAASGSILNNYAMGWYRQAPGKERELVAAISSSGGTNYADSVKGRFTISRDNAKNTVYLQMYSLKPEDTAVYYCNADVLDGGYDYWGQGTQVTVSS | low polyreactivity
QVQLVESGGGLVQAGGSLRLSCAASGFTFNRYAMGWYRQAPGKERELVAAIRSRGGSTYYADSVKGRFTISRDNAKNTVYLQMNSLKPEDTAVYYCAARSFQFYRFDYWGQGTQVTVSS | high polyreactivity
QVQLVESRGGLVQAGGSLRLSCAASGRILHFNAMGWYRQAPGKEREFVASISWSGGFTYYADSVKGRFTISRDNAKNTVYLQMNSLTPEDTAVYYCARGYGYGDHAMGYWGQGTQVTVSS | high polyreactivity
QVQHVESGGGVVQAGGSLRLSCAASGSIFSRYTMGWYRQAPGKERELVAAITSSGGRTYYADSVKGRFTISRDNAKNTVYLQMNSLKPEDTSVYYFDARIPKQQGYGYWGQGTQVTVSS | high polyreactivity
QVQLVESGGGLVQAGGSLRLSCAASGSIFAHYAMGWYRQAPGKERELVAAISKNAGSTYYADSVKGRFTISRDNAKNTVYLQMNSLKPEDTAVYYCATGYQKPYSSDYWGQGTQVTVSS | high polyreactivity
QVQLEESGGGIVQAGGTLRLTCAASGRIYATNAMGWSRQAPGKERELVATITRSAGRTYYADSVKGRFTISGDNAKNTVYLQMNSLKPEDTAVYYCAASYWDTEPGYREYDYWGQGTEVTVSS | low polyreactivity
QVQLVESGGGLVQAGGSLRLSCAASGRIFSYYAMGWYRQAPGKERELVAAISWNGGSTYYADSVKGRFTISRDNAKNTVYLQMNSLKPEDTAVYYCIRLGYRTGYERDYWGQGTQVTVSS | high polyreactivity
QVQLVESGGGIVQAGGSLRLSCAASGSTFEHNAMGWYRQAPGKEREFVAAITGSGGSTYYADSVKGRFTISRDNAKNTVYLQMTSLKPEDTAVYYCAADIQDGWYWWDIYDYWGQGTQVTVSS | low polyreactivity
QVQLVESGGGLVQAGGSLRLSCAASGIIIRYYGMGWYRQAPGKERELVARIRWTGGSTYYADSVKGRFTISRDNAKNTVYLQMNSLKPEDTAVYYCAAQWKYRQSYLDYYWGQGTQVTVSS | low polyreactivity
QVQLVESGGGLVQAGGSLRLSCAASGSIFYYYAMGWYRQAPGKERELVAAITVSGGRTYYADSVKGRFTISRDNAKNTVYLQMNSLKPEATAVYYCAAQIYGKYDYWGQGTQVTVSS | low polyreactivity
QVQLVESGGGLVQAGGSLRLSCAASGIIFRKNAMGWYRQAPGKERELVAAISSTGASTNYADSVKGRFTISRDNAKNTVYLQMNSLKPEDTAVYYCAASRTRYWKYDYWGQGTQVTVSS | high polyreactivity
QDQLVESGLGIVQAGGSLRLSCAASGYTFSQYSMGWYRQAPGKERELVAAIDSGSKTKYADSVKGRFTISRDNAKNTVYLQMNSLKPEDSAVYYCAADDSYRSIGGDYWGQGTQVTVSS | low polyreactivity
QVQLVESGGGIVQAGGSLRLSCAASGSIFNIYAMGWYRQAPGKERELVAAIRWTGGSTYYADSVKGRFTISRDNAKNTVYLQMNILIPEDTAVYYCAADPWYPRGYYWGQGTQVTVSS | high polyreactivity
QVQLVESGGGIVQAGGSLRLTCAASGRIFYYYAMGWYRQAPGKEREFVAASSRSGGSTYYADSVKGRFTISRDNAKNTVYLQMNSLKPEDTAVYYCNAVRSYRGDFKYDWGQGTQVTVSS | high polyreactivity
QVQLVESGGGLVQAGGSLRLSCAASGSTFYQYAMGWYRQAPGKERELGAAITRSGGSTYYADSVKGRFTISRDNAKNTVYLQMNSLKPEDPAVYYCAADRARRGIRDYYWGQGTQVTVSS | high polyreactivity
QVQLVESGGGLVQAGGSLRLSCAASGRIFTTNVMGWYRQAPGKERELVAAISWSGGNTYYADSVKGRFTISRDNAKNTVYLQMNSLKPEDTAVYYCNAVGTIREGDSWGQGTQVTVSS | low polyreactivity
QVQLVESVGGLVQAGGSHRLSCAASGRTFYQYTMGWSRQAPGTERELVAAITTSTGNTYYADSVKVRFTISRDNAKNTVYLQMNRLKPADTAVYECAADTVWPLDYWGLGTQVTVSS | low polyreactivity
QVQLVESGGGLVQAGGSLRLSCAASGLTLYRYAMGWYRQAPGKEREFVASISWSGGSTYYADSVKGRFTISRDNANNTVYLQMNSLKPEDTAVYYCATDSDTSQLGYDYWGQGTQVTVSS | low polyreactivity
QVQLVESGGGLVQAGGSLRLSCSASGFIFYSYAMGWSRPAPGKEREFVAAISRSGGITYYADSVKGRFTISRDNAKNTVYLQMNSLKPEDTAVYYCAKVGRAVSSIKDMDSWGQGTQVTVSS | high polyreactivity
QVQLVASGGGLVQAGGSLRLSCAASGSNFAYNGMGWYRLAPGKERELVAAMSWNGGTTYYADSVKGRFTISRDKAKKNVYLQRNSLKPEDTAVYYCATDSYYFREYDYWGQGTQVTVSS | low polyreactivity

Sequence | polyreactivity (PSR sort gate)
QVQLVDSVRGLVQAGGSLRLSCAASGSIFNQNAMGWYRQAPGKERELVAVISSGGRTSYADSVKGRFTISRDNAKNTVYLQMNSLKPEDTAVYYCAADYGDRYWDYGYWGQGTQVTVSS | low polyreactivity
QVQLVESGGGLVQAGGSLRLSCAASGFIFSYNAMGWYRQAPGKERELVATITRRGGGTTYADSVKGRFTISRDNAKNTVYLQMNSLKPEDTAGYYCNRDDNRKHSFGSVGYDYWGQGTQVTVSS | low polyreactivity
QVQLQESGGGLVQVGGSQRLSCAASGNIFYNYAMGWYRHAQGKEREFDATINHGTSINYADSVKGRFTISRDNAKNSVYLQMNSLKPEDTAVYYCAADLSWTDNLFYWGQGTQVTVSS | low polyreactivity
QVQLVESGGGLVQAGGSLRLSCAASGFIFDRYAMGWYRQAPGKERELVAAITGSGGSTYYGDSVKGRFTISRDNAKNTVYLQMNSLKPEDTAVYYCNTGGRSGSPGYDYWGQGTQVTVSS | high polyreactivity
QVHLVESGGGLVQAGGSLRLSCAASGIIFYRYAMGWYRQAPGKERELVAAISWRGTSTYYADSVKARFTISRDNANNTVYLQMNSLKPEDTEVYYCNAGVRRKYGEYYYWGQGTQVTVSS | high polyreactivity
QVQLVESGGGLVQAGGSLRLSSAASGRTFTVNAMGSYRQAPGKERELVAAISQRGASTYYADSVKGRFTISRDNAKNTVYLQMNSLKPVDTAVYYCAAHLRYKYDYWGQGTQVTVSS | high polyreactivity
QVQLVESGGGLVKAGGSLRLSCAASGSIIGFYAMGWYILAPGKERELVAAITRGGGSTFYADSVKGRFTFSRDNAKNTVYLQMNSLKPEDTAVYYCAATVYRYHGPGYYYWGQGTQVTVSS | high polyreactivity
QVQLVESGGGLVQAGGSLRLSCAASGLICPLNAMGWYRQAPGKERELVAAITYSGGGTYYADSVKGRFTISRDNAKNTVDLQMNSLKAEDTAVYYCAADGSVSYYTYYYWGQGTHVTVSS | low polyreactivity
QVQLVESGGGLVQAGGSLRLSCAASGLTFTNYAMGWYRQAPGKERELVAAISRSGARTYYADSVKGRFTISRDNAKNTVYLQMNSLKPEDTAVYYCATRYLSRGVYNYDYWGQGTQVTVSS | high polyreactivity
QVQLVESGGGLVQAGGSLRLSCAASGFIFGANAMGWYRPAPGKERELVASINGSGGSTFYADSVKGRFTISRDNAKNTVYLQMNSLNPEDTAVYYCAAPCFCWFTTGGYYYWGQGTQVTVSS | low polyreactivity
QVQLVESGGGLVQAGGSLRLSCAASGRIFSYNAMGWYRQAPGKERELFAAISSDGSTYYADSVKGRFTISRDNAKNTVYLEMNSLKPEDTAVYYCAARQVVWFVYTTAQVGSYKVNYWGQGTQVNVSS | low polyreactivity
QVQLVESGGGLVQAGGSLRLSCAASGSTFNGYAMGWYRQAPGKERELVAAISKRGGSTYYADSVKGRFTISRDNEKNTVYLQMNSLKPEDTAVYYCAARNPTQYLMDYWGQGTQVTVSS | high polyreactivity
QVQLVESGGGLVQAGGSLRLSCAASGSIFDNYAMGWYRPAPGKERELVAAITSGGSTYYADSVKGRFTISRDNAKNTVYLQMNSLKPEDTAVYYCAKDYKSIDDYWGQGTQVTVSS | low polyreactivity
QVPLVESGGGLVQAGGSLRLICAASGRIFYRYAMVWYRQAPGKERELVATISRSGGSTNYADSVKGRFTISRDNAKNTVYLQMNSLKPEDTAVYYCNARYLSTRSGDYWGQGTQVTVSS | high polyreactivity
QVQLVESGGGLVQAGGSLRLSCAASGSTFQINAMGWYRQAPGKEREFVAAITVSSGSTYYADSVKGRFTISRDNAKNTVYLQMNSLKPEDTAVYYCAAEFHWWYAGYDYGYWGQGTQVTVSS | low polyreactivity
QVQLVESGGGLVQAGGSLRLSCAASGRIFDFNAMGWYRQAPGKEREFVAAIRTSGGDSTYYADSVKGRFTISRDNAKNTVYLQMNSLKPEDTAVYYCAKTVWWYYRYPFDYWGQGTQVTVSS | low polyreactivity
QVQLVESGGGLVQAGGSLRLSCAASGRTFNYYAMGWYRQAPGKERELVAAISRSGGSTYYADSVKGRFTISRDNAKNTVYLQMNSLKPEDTAVYYCAVAWNVRGVGARQRYIYGYWGQGTQVTVSS | high polyreactivity
QVQLVQSGGGLVQAGGSLRLSCAASGSIFTPNAMGWYRQAPGKERELVAAISGRTGTTYYADSVKGRFTISRDNAKNTVYLQMHSLKPEDTAVYYCAKSSGRYRSDYRGQGTQVTVSS | high polyreactivity
QVQLVESGGGLVQAGGSLRLSCAASGRLFYQYAMGWSRQAPGKERELVAAISRSGGSTSYADSVKGRFTISRDNAKNTVYLQMNSLKPEDTAVYYCNARRWWDFQGYDYWGQGTQVTVSS | high polyreactivity
QVQLVESGGGLVQAGGSLRLSCAASGIILYFYDMGWYRQAPGKERELVAVITGGGGSTYYADSVKGRFTISRDNAMNTVYLQMNSLKPEDTAVYYCAALPWFPDEEYDYWGQGTQVTVSS | high polyreactivity
QVQLVESGAGLVQAGGSLRLSCAASVSIFDIYAMGWYRQAPGKERELVADISWSGGSTYYADSVKGRFTISRDNAKNSVYLQMNSLKPEDTAVFDCAAELYGFTVDPGDYWGQGTQVTVSS | low polyreactivity
